# Measured values reported in the RNAGym collection of RNA variant scans (doi:10.7554/elife.80360).
# B1: HDV Ribozyme (parent)
# chain: GGCCGGCAUGGUCCCAGCCUCCUCGCUGGCGCCGGCUGGGCAACAUUCCGAGGGGACCGUCCCCUCGGUAAUGGCGAAUGGGACCCA
# Variants of: B1
# Test: self-cleavage, relative activity (ratio to wild type); higher = more cleavage; co-transcriptional
row,Variant,self-cleavage
1,G2U C58G,0
2,U20C C33G,0
3,C15G C86G,0.317
4,G2C C21U,0.0615
5,C30U A56C,0.772
6,G25U C63A,0.0791
7,G68U G81A,0.492
8,G6U C85U,0.646
9,C7G A70G,0.256
10,C14G C49U,0.529
11,U37A C84U,0.116
12,C4G G11U,0.0767
13,A43G G54C,0.511
14,C21U A56G,0.315
15,C4U C13A,0.122
16,G34U C58U,0.153
17,C21G C86U,0.0791
18,G2C U12C,0.175
19,G29A G55C,0.0563
20,G10A G39C,0.182
21,U23C G55A,0.814
22,G17A G25U,0.0277
23,C26A G55C,0.862

row,Variant,self-cleavage
1,C58A C63A,1.04
2,U65A A83U,0.539
3,U37C C57G,1.1
4,C22G C86A,0.106
5,C13G G67U,0.101
6,C22G G28A,0.0462
7,C24U C85U,0.718
8,U23G C49G,0.346
9,C7G G38A,0.101
10,C30G G73C,0.0489
11,U46A G67U,0.789
12,A16U G34A,0.166
13,G38C G74C,0.148
14,C24A G25C,0.208
15,A43C U69C,0.582
16,G29C A43G,0.0692
17,U9C C57U,0.95
18,C84A C85A,0.571
19,G5U U27G,0.665
20,G6C A16C,0.712
21,C26U U69G,0.96
22,U20C G74U,0.104
23,C15G A16G,0.665

row,Variant,self-cleavage
1,C32G C85A,0.0378
2,G6C G34A,0.0536
3,C19G G55A,0.0346
4,U9G C26U,0.554
5,C36U G76A,0.697
6,G1C G68U,0.17
7,U27C A45G,0.511
8,G11C G67A,0.248
9,G5U U60C,0.604
10,C21U G25A,0.0997
11,G55C G76A,1.18
12,C4A C85G,0.393
13,C3A U37A,0.122
14,G67A A71C,0.752
15,U23C C24U,0.57
16,U60A C84G,0.475
17,C64A C66A,0.573
18,C13A A16U,0.536
19,G39A G80C,0.145
20,C22U G59C,0.566
21,G11A U65A,0.396
22,U60A G68C,0.791
23,U9C C33G,0.249
